Assay results reported in publication PMC5053586 (Cell Cycle, 2016).
One block for each compound: values may come before it.

Assays:
[1] = target: T1, TbERK8 (extracellular-signal regulated kinase 8 homolog, Tb927.10.5140) (Trypanosoma brucei, UniProt Q38B88); assay: […]-ATP kinase assay with MBP substrate, eight-point dose response; type: biochemical
T1 sequence (Q38B88 1-442): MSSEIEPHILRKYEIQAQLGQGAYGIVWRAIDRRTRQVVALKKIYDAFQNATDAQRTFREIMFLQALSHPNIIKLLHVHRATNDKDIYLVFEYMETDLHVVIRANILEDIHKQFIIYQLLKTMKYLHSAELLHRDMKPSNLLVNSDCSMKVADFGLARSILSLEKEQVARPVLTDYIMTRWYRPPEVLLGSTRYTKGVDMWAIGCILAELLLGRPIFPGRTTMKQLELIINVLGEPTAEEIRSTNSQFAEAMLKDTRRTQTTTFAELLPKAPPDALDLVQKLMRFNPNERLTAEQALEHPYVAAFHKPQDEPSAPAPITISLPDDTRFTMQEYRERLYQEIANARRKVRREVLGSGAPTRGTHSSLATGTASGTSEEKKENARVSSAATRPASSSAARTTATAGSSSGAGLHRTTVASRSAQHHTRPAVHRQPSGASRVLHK

[2] = target: T1, TbERK8 (extracellular-signal regulated kinase 8 homolog, Tb927.10.5140); assay: HTRF kinase assay; type: biochemical
[3] = target: GST-TbERK8-PIP-box fusion protein (GSTtbE8-PIP) (Trypanosoma brucei); assay: pull-down
[4] = target: GST-bound canonical PIP-box from T. brucei paraflagellar complex TbPFC19 (GSTtbPFC-PIP) (Trypanosoma brucei); assay: pull-down
[5] = target: GST-bound canonical PIP-box from T. brucei aurora kinase 1 (GSTtbAUK1-PIP) (Trypanosoma brucei); assay: pull-down

IC50 [1]: 1.4 µM
Compound: Cn1cc(C2=C(c3cn(CCCSC(=N)N)c4ccccc34)C(=O)NC2=O)c2ccccc21 [Ro318220]

IC50 [2]: ~1600 µM
Compound: COc1ccccc1C(=O)c1cnc(NC2CCN(C(=O)Nc3ccccc3)CC2)nc1N [SCYX5070]

Compound: hemagglutinin-tagged TbPCNA (wt-TbPCNAHA) (natural protein)
fold pulled down against GST-Ctrl beads [3]: 5 fold

Compound: recombinant wt-TbPCNA6H (natural protein)
fold pulled down against the TbERK8 PIP-box motif [4]: 3 fold
fold pulled down against the TbERK8 PIP-box motif [5]: 5 fold
